# Reference: the RNAGym collection of RNA variant scans (doi:10.7554/elife.80360)
# B1: HDV Ribozyme (parent)
# chain: GGCCGGCAUGGUCCCAGCCUCCUCGCUGGCGCCGGCUGGGCAACAUUCCGAGGGGACCGUCCCCUCGGUAAUGGCGAAUGGGACCCA
# Variants of: B1
# Experiment: self-cleavage, relative activity (ratio to wild type); higher = more cleavage; co-transcriptional
row,Variant,self-cleavage
1,GGCCGGCAUGGUCCCAGCCUCCUCGCUGGCGCCAGUUGGGCAACAUUCCGAGGGGACCGUCCCCUCGGUAAUGGCGAAUGGGACCCA [G34A C36U],0.0623
2,GGCCGGCAUGGUCCCAGCCUCCUCGCUGGCGCCAGCUGGGCAACAUUCCGAGGGGACCGUCCCCUCGGUAAUGGCGAAUGGGACACA [G34A C85A],0.199
3,GGCCGGCAUGGUCCCAGCCUCCUCGCUGGCGCCAGCUGGGCAACAUUCCGAGGGGACCGUCCCCUCGGUAAUGGCGAAUGGGACUCA [G34A C85U],0.163
4,GGCCGGCAUGGUCCCAGCCUCCUCGCUGGCGCCAUCUGGGCAACAUUCCGAGGGGACCGUCCCCUCGGUAAUGGCGAAUGGGACCCA [G34A G35U],0.113
5,GGCCGGCAUGGUCCCAGCCUCCUCGCUGGCGCCAACUGGGCAACAUUCCGAGGGGACCGUCCCCUCGGUAAUGGCGAAUGGGACCCA [G34A G35A],0.145
6,GGCCGGCAUGGUCCCAGCCUCCUCGCUGGCGCCACCUGGGCAACAUUCCGAGGGGACCGUCCCCUCGGUAAUGGCGAAUGGGACCCA [G34A G35C],0.0378
7,GGCCGGCAUGGUCCCAGCCUCCUCGCUGGCGCCAGCUGGGCAACAUUCCUAGGGGACCGUCCCCUCGGUAAUGGCGAAUGGGACCCA [G34A G50U],0.187
8,GGCCGGCAUGGUCCCAGCCUCCUCGCUGGCGCCAGCUGGGCAACAUUCCGAGGGGACCGUCCCCUCGGUAAUGGCGAAUUGGACCCA [G34A G80U],0.0903
9,GGCCGGCAUGGUCCCAGCCUCCUCGCUGGCGCCAGCUGGGCAACAUUCCGAGGGGACCGUCCCCUCGGUAAUGGCGAAUCGGACCCA [G34A G80C],0.0819
10,GGCCGGCAUGGUCCCAGCCUCCUCGCUGGCGCCAGCUGGGCAACAUUCCGAAGGGACCGUCCCCUCGGUAAUGGCGAAUGGGACCCA [G34A G52A],0.286
11,GGCCGGCAUGGUCCCAGCCUCCUCGCUGGCGCCAGCUGGGCAACAUUCCGACGGGACCGUCCCCUCGGUAAUGGCGAAUGGGACCCA [G34A G52C],0.0545
12,GGCCGGCAUGGUCCCAGCCUCCUCGCUGGCGCCAGCUGGGCAACAUUCCGAUGGGACCGUCCCCUCGGUAAUGGCGAAUGGGACCCA [G34A G52U],0.143
13,GGCCGGCAUGGUCCCAGCCUCCUCGCUGGCGCCAGCUGGGCAACAUUUCGAGGGGACCGUCCCCUCGGUAAUGGCGAAUGGGACCCA [G34A C48U],0.132
14,GGCCGGCAUGGUCCCAGCCUCCUCGCUGGCGCCAGCUGGGCAACAUUCCGAGGGGACCGUCCCCUCGGUAAUGGCGAAUGGGAUCCA [G34A C84U],0.142
15,GGCCGGCAUGGUCCCAGCCUCCUCGCUGGCGCCAGCUGGGCAACAUUCCGAGGGGACCGUCCCCUCGGUAAUGGCGAAUGGGAGCCA [G34A C84G],0.104
16,GGCCGGCAUGGUCCCAGCCUCCUCGCUGGCGCCAGCUGGGCAAAAUUCCGAGGGGACCGUCCCCUCGGUAAUGGCGAAUGGGACCCA [G34A C44A],0.089

row,Variant,self-cleavage
1,GGCCGGCAUGGUCCCAGCCUCCUCGCUGGCGCCAGCUGGGCAACAUUCCGAGGGGCCCGUCCCCUCGGUAAUGGCGAAUGGGACCCA [G34A A56C],0.151
2,GGCCGGCAUGGUCCCAGCCUCCUCGCUGGCGCCAGCUGGGCAACAUUCCGAGGUGACCGUCCCCUCGGUAAUGGCGAAUGGGACCCA [G34A G54U],0.17
3,GGCCGGCAUGGUCCCAGCCUCCUCGCUGGCGCCAGCUGGGCAACAUUCCGAGGCGACCGUCCCCUCGGUAAUGGCGAAUGGGACCCA [G34A G54C],0.151
4,GGCCGGCAUGGUCCCAGCCUCCUCGCUGGCGCCAGCUGGGCAACAUUCCGAGGGGACCGUCCCCUCAGUAAUGGCGAAUGGGACCCA [G34A G67A],0.104
5,GGCCGGCAUGGUCCCAGCCUCCUCGCUGGCGCCAGCUGGGCAACAUUCCGAGGGGACCGUCCCCUCCGUAAUGGCGAAUGGGACCCA [G34A G67C],0.0707
6,GGCCGGCAUGGUCCCAGCCUCCUCGCUGGCGCCAGCUGGGCAACAUUCCGAGGGGACCGUCCCCUCUGUAAUGGCGAAUGGGACCCA [G34A G67U],0.0811
7,GGCCGGCAUGGUCCCAGCCUCCUCGCUGGCGCCAGCUGGGCAACAUUCCGGGGGGACCGUCCCCUCGGUAAUGGCGAAUGGGACCCA [G34A A51G],0.0504
8,GGCCGGCAUGGUCCCAGCCUCCUCGCUGGCGCCAGCUGGGCAACAUUCCGUGGGGACCGUCCCCUCGGUAAUGGCGAAUGGGACCCA [G34A A51U],0.174
9,GGCCGGCAUGGUCCCAGCCUCCUCGCUGGCGCCAGCUGGGCAACAUUCCGAGGGGACCGUCCCCUCGGUAAUGGCGAGUGGGACCCA [G34A A78G],0.157
10,GGCCGGCAUGGUCCCAGCCUCCUCGCUGGCGCCAGCUGGGCAACAUUCCGAGGGGACCGUCCCCUCGGUAAUGGCGACUGGGACCCA [G34A A78C],0.157
11,GGCCGGCAUGGUCCCAGCCUCCUCGCUGGCGCCAGCUGGGCAACAUUCCGAGGGGACCGUCCCCUGGGUAAUGGCGAAUGGGACCCA [G34A C66G],0.138
12,GGCCGGCAUGGUCCCAGCCUCCUCGCUGGCGCCAGCUGGGCAACAUUCCGAGGGGACCGUCCCCUCGGUACUGGCGAAUGGGACCCA [G34A A71C],0.0604
13,GGCCGGCAUGGUCCCAGCCUCCUCGCUGGCGCCAGCUGGGCAACAUUCCGAGGGGACCGUCCCCUCGGUAAUGGGGAAUGGGACCCA [G34A C75G],0.203
14,GGCCGGCAUGGUCCCAGCCUCCUCGCUGGCGCCAGCUGAGCAACAUUCCGAGGGGACCGUCCCCUCGGUAAUGGCGAAUGGGACCCA [G34A G39A],0.198
15,GGCCGGCAUGGUCCCAGCCUCCUCGCUGGCGCCAGCUGGGCAACAUUCCGAGGGGACCGUCCCCUCGGUCAUGGCGAAUGGGACCCA [G34A A70C],0.0941
16,GGCCGGCAUGGUCCCAGCCUCCUCGCUGGCGCCAGCUGGGCAACAUUCUGAGGGGACCGUCCCCUCGGUAAUGGCGAAUGGGACCCA [G34A C49U],0.3
